This is an account of results in patent publication US20240116985A1 (published 2024).

The target of assay [1] is T1, B-cat-Halo (UniProt P35222 1-781, HaloTag NanoBRET 618 Ligand bound in the assay).
T1 construct: Transfected into HEK293 cells for the NanoBRET assay; also called beta-catenin HaloTag NanoBRET construct; not shown: HaloTag
T1 sequence (looked up): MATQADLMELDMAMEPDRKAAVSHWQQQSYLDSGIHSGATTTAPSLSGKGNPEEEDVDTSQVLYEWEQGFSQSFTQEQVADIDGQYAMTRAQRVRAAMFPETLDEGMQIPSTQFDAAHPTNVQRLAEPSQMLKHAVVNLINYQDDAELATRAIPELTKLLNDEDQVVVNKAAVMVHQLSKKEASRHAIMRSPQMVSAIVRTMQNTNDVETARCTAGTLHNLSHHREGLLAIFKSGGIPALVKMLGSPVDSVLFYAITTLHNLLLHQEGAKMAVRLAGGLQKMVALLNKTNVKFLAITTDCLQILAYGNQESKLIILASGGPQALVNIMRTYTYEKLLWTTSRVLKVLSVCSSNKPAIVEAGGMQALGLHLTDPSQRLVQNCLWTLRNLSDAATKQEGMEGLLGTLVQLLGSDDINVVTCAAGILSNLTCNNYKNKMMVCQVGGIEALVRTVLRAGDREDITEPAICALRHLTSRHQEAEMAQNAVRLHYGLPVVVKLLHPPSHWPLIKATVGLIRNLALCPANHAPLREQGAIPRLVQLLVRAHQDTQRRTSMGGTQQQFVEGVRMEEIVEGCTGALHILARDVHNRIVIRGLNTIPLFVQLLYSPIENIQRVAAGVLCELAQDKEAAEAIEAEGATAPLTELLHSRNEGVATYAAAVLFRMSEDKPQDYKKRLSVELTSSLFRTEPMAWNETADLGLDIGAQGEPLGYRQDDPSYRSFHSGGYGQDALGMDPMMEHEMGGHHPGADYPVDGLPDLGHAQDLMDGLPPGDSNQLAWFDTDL
Briefly: NanoBRET Abs IC50 in HEK293 cells; B-cat-Halo, competitor TCF4-Luc.

The target of assay [2] is T2, full-length beta-Catenin (Uniprot ID P35222) (Homo sapiens (Human), UniProt P35222 1-781).
T2 construct: also called bCat; B-Catenin
T2 sequence: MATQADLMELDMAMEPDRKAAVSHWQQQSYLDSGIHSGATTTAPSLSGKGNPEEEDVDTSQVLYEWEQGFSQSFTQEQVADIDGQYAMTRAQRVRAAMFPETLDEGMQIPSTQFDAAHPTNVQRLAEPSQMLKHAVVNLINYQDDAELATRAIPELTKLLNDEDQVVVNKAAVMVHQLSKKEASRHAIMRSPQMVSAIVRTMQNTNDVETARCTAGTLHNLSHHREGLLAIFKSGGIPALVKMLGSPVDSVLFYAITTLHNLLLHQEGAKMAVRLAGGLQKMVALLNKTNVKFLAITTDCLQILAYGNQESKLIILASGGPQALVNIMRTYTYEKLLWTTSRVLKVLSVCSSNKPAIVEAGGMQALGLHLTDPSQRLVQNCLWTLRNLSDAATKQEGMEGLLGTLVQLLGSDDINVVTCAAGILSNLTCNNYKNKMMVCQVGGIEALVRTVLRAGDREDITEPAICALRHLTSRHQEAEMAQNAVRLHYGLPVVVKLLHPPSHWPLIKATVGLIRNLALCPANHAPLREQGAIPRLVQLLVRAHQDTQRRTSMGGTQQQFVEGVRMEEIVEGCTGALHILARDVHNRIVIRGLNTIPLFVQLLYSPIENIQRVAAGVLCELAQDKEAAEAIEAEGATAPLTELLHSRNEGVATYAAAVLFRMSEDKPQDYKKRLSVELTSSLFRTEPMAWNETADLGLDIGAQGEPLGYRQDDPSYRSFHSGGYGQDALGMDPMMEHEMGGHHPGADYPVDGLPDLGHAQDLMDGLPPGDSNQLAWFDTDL
Briefly: fluorescence polarization competition; full-length beta-catenin, competitor 5FAM-TCF4(10-53) probe. Put shortly: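 Fluorescence polarization was read in duplicate after the plate sat 60 minutes at 20° C. shielded from light. Values come from fitting to a 1:1 binding model with hill slope.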
Background: Fluorescence polarisation rises when a labelled molecule tumbles more slowly, as on binding a larger partner.

In assay [3] the target is T3, beta-catenin in DLD1 TCF/LEF luciferase reporter cells (Homo sapiens (Human), UniProt P35222 1-781).
T3 sequence: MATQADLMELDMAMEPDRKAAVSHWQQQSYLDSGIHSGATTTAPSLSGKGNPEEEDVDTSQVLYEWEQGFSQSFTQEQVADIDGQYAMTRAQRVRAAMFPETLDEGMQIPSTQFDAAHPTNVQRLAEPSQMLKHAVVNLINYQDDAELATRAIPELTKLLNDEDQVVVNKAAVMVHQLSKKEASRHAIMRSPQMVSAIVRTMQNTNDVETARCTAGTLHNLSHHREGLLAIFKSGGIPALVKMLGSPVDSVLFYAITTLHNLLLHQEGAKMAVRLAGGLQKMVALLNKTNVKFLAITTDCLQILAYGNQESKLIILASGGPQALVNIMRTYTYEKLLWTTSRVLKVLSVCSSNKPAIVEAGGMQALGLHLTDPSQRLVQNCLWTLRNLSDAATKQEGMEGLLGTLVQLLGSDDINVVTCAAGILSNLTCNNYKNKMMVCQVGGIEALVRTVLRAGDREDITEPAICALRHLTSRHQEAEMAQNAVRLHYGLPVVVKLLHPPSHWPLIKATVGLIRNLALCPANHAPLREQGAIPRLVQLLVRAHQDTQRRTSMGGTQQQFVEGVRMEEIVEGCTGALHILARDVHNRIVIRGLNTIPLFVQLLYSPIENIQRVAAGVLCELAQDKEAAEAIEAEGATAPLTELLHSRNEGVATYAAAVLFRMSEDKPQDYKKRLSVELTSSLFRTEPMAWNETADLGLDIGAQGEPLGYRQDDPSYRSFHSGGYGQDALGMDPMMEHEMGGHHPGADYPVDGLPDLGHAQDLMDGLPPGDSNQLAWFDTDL
Kind of assay: cell-based or functional assay.

Assay [4] concerns the target T4, beta-catenin in DLD1 TCF/LEF luciferase reporter cells (UniProt P35222 1-781).
T4 sequence (looked up): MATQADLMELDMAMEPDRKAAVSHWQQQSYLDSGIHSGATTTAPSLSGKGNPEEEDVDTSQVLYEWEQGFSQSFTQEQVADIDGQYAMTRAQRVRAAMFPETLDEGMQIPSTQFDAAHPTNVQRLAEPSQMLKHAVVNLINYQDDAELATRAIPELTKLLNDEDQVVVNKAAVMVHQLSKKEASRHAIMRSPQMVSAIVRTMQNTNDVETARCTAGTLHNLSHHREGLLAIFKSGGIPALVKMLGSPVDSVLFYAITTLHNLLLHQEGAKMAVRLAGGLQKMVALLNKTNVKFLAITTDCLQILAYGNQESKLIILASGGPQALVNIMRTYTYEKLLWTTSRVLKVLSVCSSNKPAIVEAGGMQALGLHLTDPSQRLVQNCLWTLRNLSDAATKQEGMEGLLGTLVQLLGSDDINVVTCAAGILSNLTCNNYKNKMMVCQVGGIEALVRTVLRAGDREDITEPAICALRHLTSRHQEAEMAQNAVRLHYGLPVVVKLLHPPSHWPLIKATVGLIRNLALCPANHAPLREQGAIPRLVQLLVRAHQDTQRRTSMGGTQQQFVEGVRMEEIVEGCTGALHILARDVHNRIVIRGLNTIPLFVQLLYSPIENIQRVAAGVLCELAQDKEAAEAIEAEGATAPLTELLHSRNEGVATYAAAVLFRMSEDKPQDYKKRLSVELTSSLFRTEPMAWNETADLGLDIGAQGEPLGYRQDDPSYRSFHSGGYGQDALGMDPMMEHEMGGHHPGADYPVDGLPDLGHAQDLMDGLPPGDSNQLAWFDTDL
Briefly: cell-based or functional assay.

Starred links: 1 amine or outer side, 2 acyl side, 3 side chain; linkers in the order of their positions; H or OH if unused. Positions of bridges follow the written chain, without caps; N, C: chain ends. Non-standard residues stand in square brackets, D forms with d. Primed or numbered codes have the meaning given here. *: point of attachment. PyrS2″ = (S)-3-amino-1-((pent-4-en-1-yloxy)carbonyl)pyrrolidine-3-carboxylic acid (stapling residue), C=CCCCOC(=O)N1CC[C@@](N[*:1])(C(=O)[*:2])C1; B5(4) = 2,2-bis(4-pentenyl)glycine = 2-amino-2-(pent-4-en-1-yl)hept-6-enoic acid (stitching residue), C=CCCCC(CCCC=C)(N[*:1])C(=O)[*:2]; TfeGA = (S)-2-amino-3-((carboxymethyl)(2,2,2-trifluoroethyl)amino)propanoic acid, O=C([C@H](CN(CC(=O)[*:3])CC(F)(F)F)N[*:1])[*:2]; B5(3) = 2,2-bis(4-pentenyl)glycine (stitching residue), C=CCCCC(CCCC=C)(N[*:1])C(=O)[*:2]; Phe(3-COOH) = N[C@@H](Cc1cccc(C(=O)O)c1)C(=O)O; Phe(2-CF3) = N[C@@H](Cc1ccccc1C(F)(F)F)C(=O)O; Phe(2-Cl) = N[C@@H](Cc1ccccc1Cl)C(=O)O; Bta = N[C@@H](Cc1csc2ccccc12)C(=O)O; αAllylPro = C=CC[C@@]1(C(=O)O)CCCN1; tBuAla = CC(C)(C)C[C@H](N)C(=O)O; S8 = C=CCCCCCC[C@](C)(N)C(=O)O; Alaol = C[C@@H](CO)N*

B1: I-750 (peptide)
peptide: Ac-[αAllylPro]DL[B5(4)]DEAAFN[S8]F[Bta]S-NH2
modifications: staple 1-4, 4-11; also: olefin E/Z not assigned, earlier-eluting staple isomer
notes: Stapled peptide; same description as I-751, earlier eluting staple isomer composition; also called Ac-PL3-Asp-Leu-B5-Asp-Glu-Ala-Ala-Phe-Asn-S8-Phe-BztA-Ser-NH2
In the case of B1, the values for the half-maximal inhibitory concentration (IC50) in assay [1] and in assay [2] were 7.4 µM and 0.043 µM, respectively.

For Ac-[αAllylPro]D[tBuAla][B5(4)]D[TfeGA]AAFT[PyrS2″][Phe(2-Cl)][Bta]-Alaol (staple 1-4, 4-11) [I-1242], the “DLD1 4% Abs IC50” value in assay [3] was 3.8 µM.

Take Ac-[αAllylPro]D[tBuAla][B5(3)]D[Phe(3-COOH)]AAFL[PyrS2″][Phe(2-CF3)][Bta]QLA-NH2 (staple 1-4, 4-11) [I-2378]: in assay [4], the “DLD1 4% Abs IC50” value came to 1 µM.
